Test results published in patent US20220409739A1 (OXFORD UNIVERSITY INNOVATION, published 2022).

B1: mitochondrial import receptor subunit TOM20 (other, UniProt Q15388 1-145, looked up)
chain: MVGRNSAIAAGVCGALFIGYCIYFDRKRRSDPNFKNRLRERRKKQKLAKERAGLSKLPDLKDAEAVQKFFLEEIQLGEELLAQGEYEKGVDHLTNAIAVCGQPQQLLQVLQQTLPPPVFQMLLTKLPTISQRIVSAQSLAEDDVE
B2: GAPDH-cMyc protein (enzyme)
chain: not shown
notes: also called GAPDH-cMye; not shown: cMyc tag

How the values were obtained:
Experiment in all cases: co-immunoprecipitation on cMyc beads from HEK293T cell lysate, western blot
GAPDH-cMyc protein = target: B2
Argonuate 2 (Ago2) = Argonuate 2 (Ago2) (UniProt Q9UKV8 1-859)
[1] = target: Insulin triphosphate receptor 3 (IPR3) (UniProt Q14573 1-2671)
Sequence of Insulin triphosphate receptor 3 (IPR3) (Q14573 whole entry): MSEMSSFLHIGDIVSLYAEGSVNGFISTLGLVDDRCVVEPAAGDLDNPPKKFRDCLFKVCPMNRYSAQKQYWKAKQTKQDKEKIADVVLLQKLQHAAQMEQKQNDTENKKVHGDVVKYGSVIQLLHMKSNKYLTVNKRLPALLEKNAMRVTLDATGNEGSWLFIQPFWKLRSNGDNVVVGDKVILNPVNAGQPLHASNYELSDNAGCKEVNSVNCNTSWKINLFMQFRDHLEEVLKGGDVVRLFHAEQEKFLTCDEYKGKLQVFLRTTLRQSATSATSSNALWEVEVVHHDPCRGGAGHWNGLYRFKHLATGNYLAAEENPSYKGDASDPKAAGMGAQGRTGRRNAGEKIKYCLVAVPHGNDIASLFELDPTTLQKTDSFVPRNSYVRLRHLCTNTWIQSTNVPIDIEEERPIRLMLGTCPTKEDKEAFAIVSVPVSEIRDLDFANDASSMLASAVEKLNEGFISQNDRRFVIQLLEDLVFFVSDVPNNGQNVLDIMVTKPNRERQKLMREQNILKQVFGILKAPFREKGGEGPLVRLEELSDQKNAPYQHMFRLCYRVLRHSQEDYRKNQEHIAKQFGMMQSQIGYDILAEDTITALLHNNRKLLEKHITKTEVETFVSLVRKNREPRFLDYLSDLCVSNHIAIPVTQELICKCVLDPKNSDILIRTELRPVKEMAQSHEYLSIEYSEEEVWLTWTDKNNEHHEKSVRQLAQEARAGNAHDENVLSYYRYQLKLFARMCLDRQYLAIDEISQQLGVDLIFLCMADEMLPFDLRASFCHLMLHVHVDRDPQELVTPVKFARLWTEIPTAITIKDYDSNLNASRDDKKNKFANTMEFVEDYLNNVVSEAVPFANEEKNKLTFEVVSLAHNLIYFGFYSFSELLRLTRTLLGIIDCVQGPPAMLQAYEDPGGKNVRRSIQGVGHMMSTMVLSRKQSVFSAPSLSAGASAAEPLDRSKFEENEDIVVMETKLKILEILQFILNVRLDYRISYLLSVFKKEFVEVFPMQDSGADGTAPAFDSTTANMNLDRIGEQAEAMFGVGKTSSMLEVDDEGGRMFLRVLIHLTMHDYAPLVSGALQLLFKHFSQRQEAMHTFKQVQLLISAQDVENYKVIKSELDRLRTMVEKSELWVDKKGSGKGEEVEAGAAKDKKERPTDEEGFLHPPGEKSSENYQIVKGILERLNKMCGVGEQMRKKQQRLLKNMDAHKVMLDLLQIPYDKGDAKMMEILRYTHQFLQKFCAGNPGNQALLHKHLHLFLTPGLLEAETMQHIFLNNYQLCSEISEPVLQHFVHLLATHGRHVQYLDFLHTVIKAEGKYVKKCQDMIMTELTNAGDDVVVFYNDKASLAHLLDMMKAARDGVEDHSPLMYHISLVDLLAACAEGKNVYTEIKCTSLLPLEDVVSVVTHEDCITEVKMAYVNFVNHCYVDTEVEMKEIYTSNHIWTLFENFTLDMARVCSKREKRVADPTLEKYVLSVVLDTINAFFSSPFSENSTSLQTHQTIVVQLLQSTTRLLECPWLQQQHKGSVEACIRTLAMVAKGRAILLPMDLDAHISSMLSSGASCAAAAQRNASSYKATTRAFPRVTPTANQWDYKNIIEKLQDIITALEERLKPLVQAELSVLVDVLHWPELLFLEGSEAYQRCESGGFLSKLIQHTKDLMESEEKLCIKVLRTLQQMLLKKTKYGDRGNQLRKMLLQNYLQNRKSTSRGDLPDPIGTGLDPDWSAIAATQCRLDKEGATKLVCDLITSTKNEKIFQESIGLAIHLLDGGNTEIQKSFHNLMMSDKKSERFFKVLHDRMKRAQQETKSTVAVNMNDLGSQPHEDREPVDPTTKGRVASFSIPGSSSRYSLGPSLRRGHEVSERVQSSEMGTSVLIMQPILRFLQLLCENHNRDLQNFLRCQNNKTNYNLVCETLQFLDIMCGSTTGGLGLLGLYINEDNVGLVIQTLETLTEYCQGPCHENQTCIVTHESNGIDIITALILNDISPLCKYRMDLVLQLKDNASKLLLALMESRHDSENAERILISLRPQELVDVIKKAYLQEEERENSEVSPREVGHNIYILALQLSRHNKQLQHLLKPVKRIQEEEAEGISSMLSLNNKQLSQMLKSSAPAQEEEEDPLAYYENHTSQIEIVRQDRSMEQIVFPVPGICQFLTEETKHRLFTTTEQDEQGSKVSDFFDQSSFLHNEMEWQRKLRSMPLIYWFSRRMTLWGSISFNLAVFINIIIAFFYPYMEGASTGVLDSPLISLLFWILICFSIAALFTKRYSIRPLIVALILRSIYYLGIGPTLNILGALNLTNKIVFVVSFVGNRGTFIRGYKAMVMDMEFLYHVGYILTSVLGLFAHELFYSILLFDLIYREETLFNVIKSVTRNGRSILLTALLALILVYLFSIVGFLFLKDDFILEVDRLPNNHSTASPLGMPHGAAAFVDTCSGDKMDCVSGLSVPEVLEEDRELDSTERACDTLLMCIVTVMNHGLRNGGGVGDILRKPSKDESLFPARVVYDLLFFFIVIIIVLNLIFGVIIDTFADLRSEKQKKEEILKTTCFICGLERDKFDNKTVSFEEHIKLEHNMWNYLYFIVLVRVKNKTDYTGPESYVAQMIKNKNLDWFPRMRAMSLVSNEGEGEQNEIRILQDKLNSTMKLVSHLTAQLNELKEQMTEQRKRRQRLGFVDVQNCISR

Sequence of Argonuate 2 (Ago2) (Q9UKV8 whole entry): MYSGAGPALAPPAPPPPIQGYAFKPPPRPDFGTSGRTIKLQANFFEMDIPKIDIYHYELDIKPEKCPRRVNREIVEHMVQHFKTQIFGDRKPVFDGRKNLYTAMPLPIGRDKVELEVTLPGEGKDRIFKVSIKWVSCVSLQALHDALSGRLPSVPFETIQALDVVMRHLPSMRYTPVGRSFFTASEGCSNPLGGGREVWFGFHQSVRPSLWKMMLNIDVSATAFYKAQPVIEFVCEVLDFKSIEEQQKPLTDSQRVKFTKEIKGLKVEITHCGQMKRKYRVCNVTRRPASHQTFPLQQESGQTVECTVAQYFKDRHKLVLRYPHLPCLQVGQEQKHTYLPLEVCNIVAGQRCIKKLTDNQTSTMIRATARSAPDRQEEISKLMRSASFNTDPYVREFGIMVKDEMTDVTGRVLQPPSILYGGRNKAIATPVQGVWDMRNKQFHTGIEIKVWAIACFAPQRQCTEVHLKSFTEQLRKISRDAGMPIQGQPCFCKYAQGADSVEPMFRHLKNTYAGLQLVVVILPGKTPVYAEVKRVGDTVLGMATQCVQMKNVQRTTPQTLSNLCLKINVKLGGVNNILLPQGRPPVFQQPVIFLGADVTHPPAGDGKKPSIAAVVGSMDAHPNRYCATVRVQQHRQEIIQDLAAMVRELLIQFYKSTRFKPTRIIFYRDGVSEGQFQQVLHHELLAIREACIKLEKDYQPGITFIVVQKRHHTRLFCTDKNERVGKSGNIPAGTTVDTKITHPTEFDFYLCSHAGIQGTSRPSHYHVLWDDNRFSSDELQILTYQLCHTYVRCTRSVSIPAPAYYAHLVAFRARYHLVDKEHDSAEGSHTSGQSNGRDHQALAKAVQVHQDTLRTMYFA
Sequence of GAPDH-cMyc protein (P04406 whole entry): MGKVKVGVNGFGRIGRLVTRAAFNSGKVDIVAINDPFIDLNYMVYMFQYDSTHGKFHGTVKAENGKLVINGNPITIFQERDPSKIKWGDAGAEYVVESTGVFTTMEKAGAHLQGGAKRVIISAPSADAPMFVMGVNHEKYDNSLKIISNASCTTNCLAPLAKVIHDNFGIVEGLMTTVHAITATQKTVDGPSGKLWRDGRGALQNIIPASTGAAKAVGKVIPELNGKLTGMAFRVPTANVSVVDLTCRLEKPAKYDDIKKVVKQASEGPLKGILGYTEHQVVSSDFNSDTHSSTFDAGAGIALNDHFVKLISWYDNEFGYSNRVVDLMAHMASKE

binding result (GAPDH-cMyc protein) | binding result (Argonuate 2 (Ago2)) | binding result [1] | Binder
no binding | – | – | B1
– | no binding | no binding | B2
